Experimental data: patent publication CN117368459A (INST MILITARY MEDICINE ACADEMY MILITARY SCIENCES PLA, dated 2024)

Molecular target: 新冠病毒S1-RBD蛋白 (新冠病毒 (SARS-CoV-2), UniProt P0DTC2 319-541)
Assay: […] (BLI), […], antibody 118 nM to 1.88 nM, 1:1 model

Binder | Kd [pM]
Nluc-chC25抗体 (antibody, human IgG1, also called Nluc-chC25重组抗体; Nluc标记重组抗体) light: NIVLTQSPVSLAVSLGQRATISCRASESVDSYGNSFMHWYQQKPGQPPKLLIYIASNLESGVPARFSGGGSRTDFTLTIDPVEADDAATYYCQQNYEDPWTFGGGTKLEIKRADAAPSVFIFPPSDEQLKSGTASVVCLLNNFYPREAKVQWKVDNALQSGNSQESVTEQDSKDSTYSLSSTLTLSKADYEKHKVYACEVTHQGLSSPVTKSFNRGEC heavy: not shown | 15.1
HRP-chC25抗体 (antibody, human IgG1, also called HRP标记重组抗体; HRP-2C5) light: NIVLTQSPVSLAVSLGQRATISCRASESVDSYGNSFMHWYQQKPGQPPKLLIYIASNLESGVPARFSGGGSRTDFTLTIDPVEADDAATYYCQQNYEDPWTFGGGTKLEIKRADAAPSVFIFPPSDEQLKSGTASVVCLLNNFYPREAKVQWKVDNALQSGNSQESVTEQDSKDSTYSLSSTLTLSKADYEKHKVYACEVTHQGLSSPVTKSFNRGEC heavy: not shown | 37.5
